Measurements reported in article PMC10540216, “Activity Guided Azide-methyllysine Photo-trapping for Substrate Profiling of Lysine Demethylases” (Journal of the American Chemical Society, 2023).

Test system: KDM4A-I71AzF
Experiment: CASI: photo-crosslinking with HEK293T cell extracts, StrepTactin enrichment and LC-MS/MS proteomics;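 also: lysates from HEK293T cells pretreated with a KDM4 inhibitor to raise proteome methylation, affinity-purified after ±UV, gel-resolved, trypsin-digested, with exclusive unique peptides per protein averaged per condition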
Type: binding, human
Details: sheet "Final results but with 0.01"

Molecule	Fold change (+UV/-UV)
DPOG1_HUMAN (protein, UniProt P54098 1-1239, looked up) DNA polymerase subunit gamma-1: MSRLLWRKVAGATVGPGPVPAPGRWVSSSVPASDPSDGQRRRQQQQQQQQQQQQQPQQPQVLSSEGGQLRHNPLDIQMLSRGLHEQIFGQGGEMPGEAAVRRSVEHLQKHGLWGQPAVPLPDVELRLPPLYGDNLDQHFRLLAQKQSLPYLEAANLLLQAQLPPKPPAWAWAEGWTRYGPEGEAVPVAIPEERALVFDVEVCLAEGTCPTLAVAISPSAWYSWCSQRLVEERYSWTSQLSPADLIPLEVPTGASSPTQRDWQEQLVVGHNVSFDRAHIREQYLIQGSRMRFLDTMSMHMAISGLSSFQRSLWIAAKQGKHKVQPPTKQGQKSQRKARRGPAISSWDWLDISSVNSLAEVHRLYVGGPPLEKEPRELFVKGTMKDIRENFQDLMQYCAQDVWATHEVFQQQLPLFLERCPHPVTLAGMLEMGVSYLPVNQNWERYLAEAQGTYEELQREMKKSLMDLANDACQLLSGERYKEDPWLWDLEWDLQEFKQKKAKKVKKEPATASKLPIEGAGAPGDPMDQEDLGPCSEEEEFQQDVMARACLQKLKGTTELLPKRPQHLPGHPGWYRKLCPRLDDPAWTPGPSLLSLQMRVTPKLMALTWDGFPLHYSERHGWGYLVPGRRDNLAKLPTGTTLESAGVVCPYRAIESLYRKHCLEQGKQQLMPQEAGLAEEFLLTDNSAIWQTVEELDYLEVEAEAKMENLRAAVPGQPLALTARGGPKDTQPSYHHGNGPYNDVDIPGCWFFKLPHKDGNSCNVGSPFAKDFLPKMEDGTLQAGPGGASGPRALEINKMISFWRNAHKRISSQMVVWLPRSALPRAVIRHPDYDEEGLYGAILPQVVTAGTITRRAVEPTWLTASNARPDRVGSELKAMVQAPPGYTLVGADVDSQELWIAAVLGDAHFAGMHGCTAFGWMTLQGRKSRGTDLHSKTATTVGISREHAKIFNYGRIYGAGQPFAERLLMQFNHRLTQQEAAEKAQQMYAATKGLRWYRLSDEGEWLVRELNLPVDRTEGGWISLQDLRKVQRETARKSQWKKWEVVAERAWKGGTESEMFNKLESIATSDIPRTPVLGCCISRALEPSAVQEEFMTSRVNWVVQSSAVDYLHLMLVAMKWLFEEFAIDGRFCISIHDEVRYLVREEDRYRAALALQITNLLTRCMFAYKLGLNDLPQSVAFFSAVDIDRCLRKEVTMDCKTPSNPTGMERRYGIPQGEALDIYQIIELTKGSLEKRSQPGP	0
SYVM_HUMAN (protein, UniProt Q5ST30 27-1063, looked up) Valine--tRNA ligase, …: SVSTQSEPHGSPISRRNREAKQKRLREKQATLEAEIAGESKSPAESIKAWRPKELVLYEIPTKPGEKKDVSGPLPPAYSPRYVEAAWYPWWVREGFFKPEYQARLPQATGETFSMCIPPPNVTGSLHIGHALTVAIQDALVRWHRMRGDQVLWVPGSDHAGIATQAVVEKQLWKERGVRRHELSREAFLREVWQWKEAKGGEICEQLRALGASLDWDRECFTMDVGSSVAVTEAFVRLYKAGLLYRNHQLVNWSCALRSAISDIEVENRPLPGHTQLRLPGCPTPVSFGLLFSVAFPVDGEPDAEVVVGTTRPETLPGDVAVAVHPDDSRYTHLHGRQLRHPLMGQPLPLITDYAVQPHVGTGAVKVTPAHSPADAEMGARHGLSPLNVIAEDGTMTSLCGDWLQGLHRFVAREKIMSVLSEWGLFRGLQNHPMVLPICSRSGDVIEYLLKNQWFVRCQEMGARAAKAVESGALELSPSFHQKNWQHWFSHIGDWCVSRQLWWGHQIPAYLVVEDHAQGEEDCWVVGRSEAEAREVAAELTGRPGAELTLERDPDVLDTWFSSALFPFSALGWPQETPDLARFYPLSLLETGSDLLLFWVGRMVMLGTQLTGQLPFSKVLLHPMVRDRQGRKMSKSLGNVLDPRDIISGVEMQVLQEKLRSGNLDPAELAIVAAAQKKDFPHGIPECGTDALRFTLCSHGVQAGDLHLSVSEVQSCRHFCNKIWNALRFILNALGEKFVPQPAEELSPSSPMDAWILSRLALAAQECERGFLTRELSLVTHALHHFWLHNLCDVYLEAVKPVLWHSPRPLGPPQVLFSCADLGLRLLAPLMPFLAEELWQRLPPRPGCPPAPSISVAPYPSACSLEHWRQPELERRFSRVQEVVQVLRALRATYQLTKARPRVLLQSSEPGDQGLFEAFLEPLGTLGYCGAVGLLPPGAAAPSGWAQAPLSDTAQVYMELQGLVDPQIQLPLLAARRYKLQKQLDSLTARTPSEGEAGTQRQQKLSSLQLELSKLDKAASHLRQLMDEPPAPGSPEL	0.5
NU133_HUMAN (protein, UniProt Q8WUM0 1-1156, looked up) Nuclear pore complex protein …: MFPAAPSPRTPGTGSRRGPLAGLGPGSTPRTASRKGLPLGSAVSSPVLFSPVGRRSSLSSRGTPTRMFPHHSITESVNYDVKTFGSSLPVKVMEALTLAEVDDQLTINIDEGGWACLVCKEKLIIWKIALSPITKLSVCKELQLPPSDFHWSADLVALSYSSPSGEAHSTQAVAVMVATREGSIRYWPSLAGEDTYTEAFVDSGGDKTYSFLTAVQGGSFILSSSGSQLIRLIPESSGKIHQHILPQGQGMLSGIGRKVSSLFGILSPSSDLTLSSVLWDRERSSFYSLTSSNISKWELDDSSEKHAYSWDINRALKENITDAIWGSESNYEAIKEGVNIRYLDLKQNCDGLVILAAAWHSADNPCLIYYSLITIEDNGCQMSDAVTVEVTQYNPPFQSEDLILCQLTVPNFSNQTAYLYNESAVYVCSTGTGKFSLPQEKIVFNAQGDSVLGAGACGGVPIIFSRNSGLVSITSRENVSILAEDLEGSLASSVAGPNSESMIFETTTKNETIAQEDKIKLLKAAFLQYCRKDLGHAQMVVDELFSSHSDLDSDSELDRAVTQISVDLMDDYPASDPRWAESVPEEAPGFSNTSLIILHQLEDKMKAHSFLMDFIHQVGLFGRLGSFPVRGTPMATRLLLCEHAEKLSAAIVLKNHHSRLSDLVNTAILIALNKREYEIPSNLTPADVFFREVSQVDTICECLLEHEEQVLRDAPMDSIEWAEVVINVNNILKDMLQAASHYRQNRNSLYRREESLEKEPEYVPWTATSGPGGIRTVIIRQHEIVLKVAYPQADSNLRNIVTEQLVALIDCFLDGYVSQLKSVDKSSNRERYDNLEMEYLQKRSDLLSPLLSLGQYLWAASLAEKYCDFDILVQMCEQTDNQSRLQRYMTQFADQNFSDFLFRWYLEKGKRGKLLSQPISQHGQLANFLQAHEHLSWLHEINSQELEKAHATLLGLANMETRYFAKKKTLLGLSKLAALASDFSEDMLQEKIEEMAEQERFLLHQETLPEQLLAEKQLNLSAMPVLTAPQLIGLYICEENRRANEYDFKKALDLLEYIDEEEDININDLKLEILCKALQRDNWSSSDGKDDPIEVSKDSIFVKILQKLLKDGIQLSEYLPEVKDLLQADQLGSLKSNPYFEFVLKANYEYYVQGQI	0.8
